Assay [1] concerns the target L2-OVX313 (human papillomavirus type 16) (UniProt P03107). As to the kind of experiment: SEC; Superdex 200 HR10/30, 25 mM Tris-HCl (pH 7.5), 150 mM NaCl, 0.7 ml/min; heparin-purified antigen; calibrated with molecular mass standards. (Size exclusion chromatography separates by hydrodynamic size, large species first.)
Assay [2] has the same target. As to the kind of experiment: non-reducing SDS-PAGE; heparin-purified antigen electrophoresed without β-mercaptoethanol (disulfide-linked oligomer kept); reduced sample beside it runs as the monomer.
The target of assay [3] is PfTrx-L2(8x)-OVX313 (Pyrococcus furiosus). Nature of the assay: SEC; Superdex 200 HR10/30, 25 mM Tris-HCl (pH 7.5), 150 mM NaCl, 0.7 ml/min; heparin-purified antigen; calibrated with molecular mass standards.
Assay [4] has the same target. As to the kind of experiment: non-reducing SDS-PAGE; heparin-purified antigen electrophoresed without β-mercaptoethanol (disulfide-linked oligomer kept); reduced sample beside it runs as the monomer.
For assay [5], the target named is PfTrx-L2-OVX313 (Pyrococcus furiosus | human papillomavirus type 16) (UniProt P03107). Nature of the assay: SEC; Superdex 200 HR10/30, 25 mM Tris-HCl (pH 7.5), 150 mM NaCl, 0.7 ml/min; heparin-purified antigen; calibrated with molecular mass standards.
The target is the same in assay [6]. Nature of the assay: non-reducing SDS-PAGE; heparin-purified antigen electrophoresed without β-mercaptoethanol (disulfide-linked oligomer kept); reduced sample beside it runs as the monomer.

This passage reports stoichiometry N results from paper PMC5740060.

In the case of “L2-OVX313 (from UniProt P03107 20-38; P03107 20-38; P03107 20-38)”, the stoichiometry N in assay [1] and in assay [2] was 7 throughout.
In the case of PfTrx-L2(8x)-OVX313, the stoichiometry N in assay [3] and in assay [4] was 7 throughout.
With “PfTrx-L2-OVX313 (from UniProt P03107 20-38; P03107 20-38; P03107 20-38)”, the stoichiometry N in assay [5] and in assay [6] was 7 throughout.

In general, stoichiometry N refers to the number of molecules, sites or subunits per partner or assembly.
